Some targets named below: DLG1_3, Q12959; GRID2IP_1, A4D2P6; DLG2_3, Q15700; DLG4_3, P78352; FRMPD2_2, Q68DX3; GRIP2_3, Q9C0E4; GRIP2_7, Q9C0E4; GOPC, Q9HD26.
What all share (assay): holdup assay
Set-up in all cases: key: below the threshold = too weak to quantify, mostly under pKd 3.1 to 4

The target of the next assay is HTRA1, Q92743. The following applies: plain residues with an end cap or a label only (N-terminal biotin on a linker: ttds).
Another assay concerns the target T1, PCLO, Q9Y6V0.
T1 sequence (Q9Y6V0 4491-4600, limits assumed, looked up): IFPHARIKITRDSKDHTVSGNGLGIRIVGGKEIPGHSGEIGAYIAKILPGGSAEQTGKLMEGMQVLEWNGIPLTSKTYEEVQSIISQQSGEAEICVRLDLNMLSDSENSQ

The target in another assay is T2, PTPN13_1, Q12923.
T2 sequence (Q12923 1088-1188, limits assumed, looked up): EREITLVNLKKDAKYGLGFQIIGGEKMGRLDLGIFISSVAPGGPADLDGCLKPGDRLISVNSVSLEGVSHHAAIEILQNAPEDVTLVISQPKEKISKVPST

For the next assay, the target named is DLG1_2, Q12959. The following applies: plain residues with an end cap or a label only (N-terminal biotin on a linker: ttds).
Chain of DLG1_2, Q12959 (Q12959 314-412): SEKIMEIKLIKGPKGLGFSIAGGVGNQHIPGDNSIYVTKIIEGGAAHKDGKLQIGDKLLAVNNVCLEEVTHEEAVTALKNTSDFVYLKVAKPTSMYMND
The target in a further assay is T3, PDZD7_3, Q9H5P4.
T3 sequence (Q9H5P4 857-944, limits assumed, looked up): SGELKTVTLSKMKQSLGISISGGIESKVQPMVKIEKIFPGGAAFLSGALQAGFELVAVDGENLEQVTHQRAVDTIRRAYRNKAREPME

In a further assay the target is T4, ARHGAP21, Q5T5U3.
T4 sequence (Q5T5U3 45-169, limits assumed, looked up): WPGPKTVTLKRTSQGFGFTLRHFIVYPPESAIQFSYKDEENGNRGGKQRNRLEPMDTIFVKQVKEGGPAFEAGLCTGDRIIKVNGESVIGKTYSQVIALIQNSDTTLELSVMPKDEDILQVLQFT

The target in another assay is Inadl_10, Q8NI35. The following applies: plain residues with an end cap or a label only (N-terminal biotin on a linker: ttds).
Chain of Inadl_10, Q8NI35 (Q8NI35 1673-1763): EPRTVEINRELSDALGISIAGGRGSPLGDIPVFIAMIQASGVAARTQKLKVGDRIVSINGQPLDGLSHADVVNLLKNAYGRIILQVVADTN
The target of another assay is T5, SNTB1, Q13884.
T5 sequence (Q13884 107-205, limits assumed, looked up): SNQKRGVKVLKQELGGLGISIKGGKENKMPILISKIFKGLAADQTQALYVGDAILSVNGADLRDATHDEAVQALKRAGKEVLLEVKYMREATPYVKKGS

The next assay concerns the target T6, SYNJ2BP, P57105.
T6 sequence (P57105 8-110, limits assumed, looked up): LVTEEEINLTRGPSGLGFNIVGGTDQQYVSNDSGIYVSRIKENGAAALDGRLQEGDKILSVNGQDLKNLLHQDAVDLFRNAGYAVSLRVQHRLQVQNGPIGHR
The following applies: plain residues with an end cap or a label only (N-terminal biotin on a linker: ttds).

A further assay addresses T7, RAPGEF6, Q8TEU7.
T7 sequence (Q8TEU7 525-625, limits assumed, looked up): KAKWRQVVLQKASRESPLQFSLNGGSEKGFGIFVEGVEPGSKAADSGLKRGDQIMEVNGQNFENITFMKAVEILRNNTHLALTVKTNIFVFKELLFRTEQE

Another assay has as its target T8, PARD3B_1, Q8TEW8.
T8 sequence (Q8TEW8 196-299, limits assumed, looked up): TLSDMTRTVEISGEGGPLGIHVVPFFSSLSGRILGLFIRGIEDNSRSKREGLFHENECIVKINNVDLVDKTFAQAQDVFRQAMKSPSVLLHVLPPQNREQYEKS

Another assay addresses DLG2_2, Q15700. The following applies: plain residues with an end cap or a label only (N-terminal biotin on a linker: ttds).
The target of a further assay is T9, LRRC7, Q96NW7.
T9 sequence (Q96NW7 1440-1537, limits assumed, looked up): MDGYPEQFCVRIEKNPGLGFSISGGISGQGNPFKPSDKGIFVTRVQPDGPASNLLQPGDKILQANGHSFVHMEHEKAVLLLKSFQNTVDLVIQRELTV

Another assay has as its target T10, SIPA1L2, Q9P2F8.
T10 sequence (Q9P2F8 945-1036, limits assumed, looked up): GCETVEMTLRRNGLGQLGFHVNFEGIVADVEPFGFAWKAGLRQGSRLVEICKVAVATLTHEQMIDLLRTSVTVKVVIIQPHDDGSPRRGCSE

The next assay concerns the target GIPC2, Q8TF65. The following applies: plain residues with an end cap or a label only (N-terminal biotin on a linker: ttds).
A further assay has as its target T11, MPDZ_5, O75970.
T11 sequence (O75970 695-796, limits assumed, looked up): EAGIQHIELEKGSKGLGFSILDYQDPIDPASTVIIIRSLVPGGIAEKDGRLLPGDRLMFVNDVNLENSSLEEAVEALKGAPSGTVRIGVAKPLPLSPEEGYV

A further assay addresses T12, LIN7A, O14910.
T12 sequence (O14910 103-200, limits assumed, looked up): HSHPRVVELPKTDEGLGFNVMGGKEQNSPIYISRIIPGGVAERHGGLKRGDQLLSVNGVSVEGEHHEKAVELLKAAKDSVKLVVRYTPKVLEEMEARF

Where [1] appears, read: plain residues with an end cap or a label only (N-terminal biotin on a linker: ttds).
[2] abbreviates: plain residues with an end cap or a label only (N-terminal biotin on a linker: ahx).

Chain of GRID2IP_1, A4D2P6 (A4D2P6 1-87): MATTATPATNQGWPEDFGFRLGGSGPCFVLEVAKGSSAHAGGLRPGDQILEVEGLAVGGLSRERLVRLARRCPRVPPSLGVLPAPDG
Chain of GRIP2_3, Q9C0E4 (Q9C0E4 238-339): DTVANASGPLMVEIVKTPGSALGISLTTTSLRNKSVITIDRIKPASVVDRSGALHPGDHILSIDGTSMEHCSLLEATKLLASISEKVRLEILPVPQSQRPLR
Chain of DLG1_3, Q12959 (Q12959 457-571): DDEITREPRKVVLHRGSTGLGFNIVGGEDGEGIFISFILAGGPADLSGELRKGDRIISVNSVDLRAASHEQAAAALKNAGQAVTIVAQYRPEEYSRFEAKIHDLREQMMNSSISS
Chain of GRIP2_7, Q9C0E4 (Q9C0E4 934-1023): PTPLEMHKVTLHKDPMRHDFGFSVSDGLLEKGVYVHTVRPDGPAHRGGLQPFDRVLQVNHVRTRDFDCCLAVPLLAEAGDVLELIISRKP
Chain of DLG4_3, P78352 (P78352 306-403): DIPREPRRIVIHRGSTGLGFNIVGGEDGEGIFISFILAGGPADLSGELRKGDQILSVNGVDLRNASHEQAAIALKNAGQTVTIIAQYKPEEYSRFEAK
Chain of FRMPD2_2, Q68DX3 (Q68DX3 944-1038): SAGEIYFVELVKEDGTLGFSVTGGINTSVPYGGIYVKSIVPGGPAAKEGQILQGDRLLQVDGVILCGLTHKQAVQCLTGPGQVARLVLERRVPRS
Chain of HTRA1, Q92743 (Q92743 360-477): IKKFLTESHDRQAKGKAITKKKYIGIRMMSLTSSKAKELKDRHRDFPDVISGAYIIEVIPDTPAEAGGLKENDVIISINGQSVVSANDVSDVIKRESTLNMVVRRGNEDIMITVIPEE
Chain of GIPC2, Q8TF65 (Q8TF65 112-203): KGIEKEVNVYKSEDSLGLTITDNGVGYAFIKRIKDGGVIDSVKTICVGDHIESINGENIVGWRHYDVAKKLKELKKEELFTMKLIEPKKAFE

By pKd is commonly meant the negative decadic logarithm of the Kd, by convention in mol/L. As to TEEEVQDTRL [CFTR, P13569], the pKd result with DLG1_3, Q12959 (setting [1]) is “below the threshold”; with HTRA1, Q92743 it was “below the threshold”; with PCLO, Q9Y6V0 (setting [1]), “below the threshold”; with GRID2IP_1, A4D2P6 (setting [1]), “below the threshold”; with PTPN13_1, Q12923 (setting [1]), “below the threshold”; with DLG1_2, Q12959, “below the threshold”. Also, the pKd was 4.23 in the assay with PDZD7_3, Q9H5P4 (setting [1]); “below the threshold” in the assay with ARHGAP21, Q5T5U3 (setting [1]); “below the threshold” with DLG2_3, Q15700 (setting [1]); “below the threshold” with DLG4_3, P78352 (setting [1]); “below the threshold” in the assay with FRMPD2_2, Q68DX3 (setting [1]); “below the threshold” with Inadl_10, Q8NI35. The pKd with SNTB1, Q13884 (setting [1]) is 4.2; in the assay with SYNJ2BP, P57105, “below the threshold”; in the assay with RAPGEF6, Q8TEU7 (setting [1]), “below the threshold”; with PARD3B_1, Q8TEW8 (setting [1]), 3.95; in the assay with DLG2_2, Q15700 it was “below the threshold”; in the assay with LRRC7, Q96NW7 (setting [1]), “below the threshold”. For the same molecule, the pKd entry with GRIP2_3, Q9C0E4 (setting [1]) was “below the threshold”; with SIPA1L2, Q9P2F8 (setting [1]) it was “below the threshold”; with GRIP2_7, Q9C0E4 (setting [1]), “below the threshold”; with GIPC2, Q8TF65 it was “below the threshold”; with MPDZ_5, O75970 (setting [1]) it was “below the threshold”; with LIN7A, O14910 (setting [1]), “below the threshold”.
Take LCKSHAFSHV [PDLIM7, Q9NR12;Q9NR12-1]: the pKd entry with DLG1_3, Q12959 (setting [2]) was “below the threshold”; with PCLO, Q9Y6V0 (setting [2]) it was “below the threshold”; with GRID2IP_1, A4D2P6 (setting [2]) it was “below the threshold”; with PTPN13_1, Q12923 (setting [2]), “below the threshold”; with PDZD7_3, Q9H5P4 (setting [2]), “below the threshold”; with ARHGAP21, Q5T5U3 (setting [2]), “below the threshold”. For the same molecule, the pKd result with DLG2_3, Q15700 (setting [2]) is on record as “below the threshold”; with DLG4_3, P78352 (setting [2]), “below the threshold”; with FRMPD2_2, Q68DX3 (setting [2]), “below the threshold”; with SNTB1, Q13884 (setting [2]), “below the threshold”; in the assay with RAPGEF6, Q8TEU7 (setting [2]) it was “below the threshold”; with PARD3B_1, Q8TEW8 (setting [2]), “below the threshold”. Further, the negative logarithm of the Kd (pKd) result with GOPC, Q9HD26 (setting [2]) is “below the threshold”; in the assay with LRRC7, Q96NW7 (setting [2]) it was “below the threshold”; with GRIP2_3, Q9C0E4 (setting [2]), “below the threshold”; with SIPA1L2, Q9P2F8 (setting [2]), “below the threshold”; with GRIP2_7, Q9C0E4 (setting [2]), “below the threshold”; in the assay with MPDZ_5, O75970 (setting [2]), “below the threshold”. Besides, the negative logarithm of the Kd (pKd) entry in the assay with LIN7A, O14910 (setting [2]) was “below the threshold”.
Take CLDTSRETDL [KCNA5, P22460]: the pKd with DLG1_3, Q12959 (setting [1]) is 3.57; with HTRA1, Q92743 it was “below the threshold”; with PCLO, Q9Y6V0 (setting [1]) it was “below the threshold”; with GRID2IP_1, A4D2P6 (setting [1]) it was “below the threshold”; in the assay with PTPN13_1, Q12923 (setting [1]), “below the threshold”; with DLG1_2, Q12959 it was 4.79. Besides, the pKd with PDZD7_3, Q9H5P4 (setting [1]) is 4.05; with ARHGAP21, Q5T5U3 (setting [1]), 3.78; with DLG2_3, Q15700 (setting [1]), “below the threshold”; in the assay with DLG4_3, P78352 (setting [1]) it was “below the threshold”; with FRMPD2_2, Q68DX3 (setting [1]), “below the threshold”; in the assay with Inadl_10, Q8NI35 it was “below the threshold”. For the same molecule, the pKd is 5.51 in the assay with SNTB1, Q13884 (setting [1]); 4.2 in the assay with SYNJ2BP, P57105; “below the threshold” with RAPGEF6, Q8TEU7 (setting [1]); “below the threshold” with PARD3B_1, Q8TEW8 (setting [1]); 4.19 with DLG2_2, Q15700; “below the threshold” with GOPC, Q9HD26 (setting [1]). Also, the pKd with LRRC7, Q96NW7 (setting [1]) was 3.68; with GRIP2_3, Q9C0E4 (setting [1]) it was “below the threshold”; with SIPA1L2, Q9P2F8 (setting [1]), “below the threshold”; with GRIP2_7, Q9C0E4 (setting [1]), “below the threshold”; with GIPC2, Q8TF65, “below the threshold”; with MPDZ_5, O75970 (setting [1]), “below the threshold”. In addition, the pKd entry with LIN7A, O14910 (setting [1]) is “below the threshold”.
DEDQHTQITKV [PTEN, P60484]: the negative logarithm of the Kd (pKd) with DLG1_3, Q12959 (setting [1]) is 3.71; with HTRA1, Q92743, 4.27; with PCLO, Q9Y6V0 (setting [1]) it was “below the threshold”; with GRID2IP_1, A4D2P6 (setting [1]), “below the threshold”; with PTPN13_1, Q12923 (setting [1]), “below the threshold”; with DLG1_2, Q12959, 3.97. Further, the pKd with PDZD7_3, Q9H5P4 (setting [1]) was 5.1; in the assay with ARHGAP21, Q5T5U3 (setting [1]), “below the threshold”; with DLG2_3, Q15700 (setting [1]), “below the threshold”; with DLG4_3, P78352 (setting [1]), 3.56; with FRMPD2_2, Q68DX3 (setting [1]) it was 4.19; with Inadl_10, Q8NI35, 3.58. Also, the pKd is 4.08 in the assay with SNTB1, Q13884 (setting [1]); 3.65 with SYNJ2BP, P57105; “below the threshold” in the assay with RAPGEF6, Q8TEU7 (setting [1]); 3.72 with PARD3B_1, Q8TEW8 (setting [1]); 3.55 with DLG2_2, Q15700; 4.24 with GOPC, Q9HD26 (setting [1]). For the same molecule, the negative-log Kd (pKd) entry was “below the threshold” in the assay with LRRC7, Q96NW7 (setting [1]); 3.56 in the assay with GRIP2_3, Q9C0E4 (setting [1]); “below the threshold” in the assay with SIPA1L2, Q9P2F8 (setting [1]); 3.55 with GRIP2_7, Q9C0E4 (setting [1]); 3.46 in the assay with MPDZ_5, O75970 (setting [1]); “below the threshold” with LIN7A, O14910 (setting [1]).

The record behind these values is article PMC9482650, “Quantitative fragmentomics allow affinity mapping of interactomes” (Nature Communications, 2022).
